The subject of data set [1] is mixed culture of cell lines GFG, EPG, TPG and parental Ba/F3. The data set can be described thus: Cytokine responses in mixed and individual cell cultures (Example 2). It counts as cell-based, mouse. The settings on record: mixed culture of four cell lines (each 4×10^3 cells/well), similar in individual cultures, 72 hours, WST-8; listed as hG-CSF. As to the method:
Mixed culture of the cell lines GFG, EPG, and TPG, which express human G-CSF, EPO, and TPO chimeric receptors, respectively, and their parental cell line Ba/F3 was conducted and their response to various cytokines was examined.
The cells were washed twice with RPMI1640 media containing 2% fetal bovine serum, and then were suspended in RPMI1640 containing 10% fetal bovine serum. The four cell lines were mixed by adjusting each of the cell lines to 4×10^4 cells/mL (16×10^4 cells/mL in total) for the mixed culture, and, for individual cultures, cells were prepared at 4×10^4 cells/mL. 100 μL each of the cells were independently seeded on a 96-well microtiter plate (flat bottom, Falcon). After adding 100 μL/well each of appropriately diluted cytokines, the cultures were cultured for 72 hours in a CO2 incubator (5% CO2 concentration). After the culture, 10 μL/well WST-8 reagent (Cell Count Reagent SF; Nacalai Tesque) was added, and pre-reaction absorbance at a measurement wavelength of 450 nm and a control wavelength of 655 nm was measured using a microplate reader (Model 3550, Bio Rad). The plate was incubated for two hours in a CO2 incubator (CO2 concentration, 5%), and post-reaction absorbance was measured as above. Data were graphed out taking the cytokine concentrations on the horizontal axis and the amount of changes in absorbance after 2-hour incubation on the vertical axis (FIGS. 18, 19, and 20).

The target in data set [2] is T1, chimeric G-CSF receptor (human G-CSF receptor extracellular domain / mouse G-CSF receptor) in Ba/F3 cell line GFG (UniProt P40223+Q99062).
T1 construct: the extracellular domain (from the −23rd to the 604th amino acid residues); expressed in transfected cells; host or cells: mouse Ba/F3 cells, clone GFG#342 = GFG
T1 sequence (Q99062+P40223 with tags, fused parts or gaps): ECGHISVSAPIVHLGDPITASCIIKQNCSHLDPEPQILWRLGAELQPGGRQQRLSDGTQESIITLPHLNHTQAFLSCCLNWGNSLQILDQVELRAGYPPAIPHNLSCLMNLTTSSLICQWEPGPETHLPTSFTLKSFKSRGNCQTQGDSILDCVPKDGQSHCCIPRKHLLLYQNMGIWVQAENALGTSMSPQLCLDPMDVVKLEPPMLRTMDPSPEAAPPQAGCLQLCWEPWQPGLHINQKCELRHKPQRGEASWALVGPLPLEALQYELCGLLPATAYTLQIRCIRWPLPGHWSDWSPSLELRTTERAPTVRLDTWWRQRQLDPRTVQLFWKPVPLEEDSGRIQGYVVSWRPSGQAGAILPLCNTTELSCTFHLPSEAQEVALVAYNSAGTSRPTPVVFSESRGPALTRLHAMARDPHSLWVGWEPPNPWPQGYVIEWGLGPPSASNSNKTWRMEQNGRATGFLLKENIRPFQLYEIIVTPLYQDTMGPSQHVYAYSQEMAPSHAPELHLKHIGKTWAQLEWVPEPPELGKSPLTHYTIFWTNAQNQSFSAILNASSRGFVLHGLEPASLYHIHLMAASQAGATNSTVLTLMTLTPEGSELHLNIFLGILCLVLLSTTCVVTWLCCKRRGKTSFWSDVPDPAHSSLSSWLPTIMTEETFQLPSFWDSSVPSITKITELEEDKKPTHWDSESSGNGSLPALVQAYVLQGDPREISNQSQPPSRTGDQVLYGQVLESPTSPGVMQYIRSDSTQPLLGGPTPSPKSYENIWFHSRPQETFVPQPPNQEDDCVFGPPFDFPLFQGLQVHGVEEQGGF
The data set can be described thus: Growth response of chimeric G-CSF receptor-expressing Ba/F3 cell line GFG (WST-8). It counts as cell-based. The settings on record: 70 hours culture, WST-8 absorbance. From the text: A chimeric receptor cDNA was constructed by linking cDNA fragments encoding the extracellular domain (from the −23rd to the 604th amino acid residues; Fukunaga, R. et al. (1990) Proc. Natl. Acad. Sci. USA 87, 8702-8706) of human G-CSF receptor, and the transmembrane and intracellular domains (from the 602nd to the 813th amino acid residues; Fukunaga, R. et al. (1990) Cell 61, 341-350) of mouse G-CSF receptor. The cDNA was inserted downstream of the HEF1α promoter of the mammalian expression vector pCOS-G to construct chimeric receptor-expression vector GG/pCOS-G. GG/pCOS-G was linearized with Pvu I (Takara Shuzo), extracted with phenol and chloroform, and purified by ethanol precipitation.
(§1) The linearized expression gene vector was introduced into mouse Ba/F3 cells using an electroporation apparatus (Gene Pulser: Bio Rad). […]
The cells were washed twice with Media A, and were suspended in Media A to give a cell density of 5×10^4 cells/mL. […] After the culture, 10 μl/well WST-8 reagent (Cell Count Reagent SF; Nacalai Tesque) was added, and pre-reaction absorbance at a measurement wavelength of 450 nm and a control wavelength of 655 nm was measured using microplate reader (Model 3550, Bio Rad). The plate was incubated for two hours in a CO2 incubator (CO2 concentration, 5%), and post-reaction absorbance was measured as above.

Data set [3] in a line: Titer of human EPO and G-CSF prepared from recombinant CHO cells.
Data set [4] deals with T2, chimeric Flt-3 receptor (human Flt-3 extracellular domain / mouse G-CSF receptor) in Ba/F3 cell line FLG (Homo sapiens, UniProt P36888).
T2 construct: from the 1st to the 541st amino acid residues; expressed in transfected cells; host or cells: mouse Ba/F3 cells, clone FLG#102 = FLG
Description: Growth response of chimeric Flt-3 receptor-expressing Ba/F3 cell line FLG (WST-8). It counts as cell-based. The settings on record: 74 hours culture, WST-8 absorbance.
Excerpt: A chimeric receptor cDNA was constructed by linking cDNA fragments encoding the extracellular domain (from the 1st to the 541st amino acid residues; Small, D. et al. (1994) Proc. Natl. Acad. Sci. USA. 91, 459-463) of human Flt-3, and the transmembrane and intracellular domains (from the 602nd to the 813th amino acid residues; Fukunaga, R. et al. (1990) Cell 61, 341-350) of mouse G-CSF receptor. The cDNA was inserted downstream of the EF1α promoter of the mammalian expression vector pCOS2 to construct chimeric receptor-expression vector FLG/pCOS2. The FLG/pCOS2 was linearized with Hpa I (Takara Shuzo), extracted with phenol and chloroform, and purified by ethanol precipitation.
as §1
The cells were washed twice with Media A, and were suspended in Media A to give a cell density of 5×10^4 cells/mL. […] After the culture, 10 μl/well WST-8 reagent (Cell Count Reagent SF; Nacalai Tesque) was added, and pre-reaction absorbance at a measurement wavelength of 450 nm and a control wavelength of 655 nm was measured using microplate reader (Model 3550, Bio Rad). The plate was incubated for two hours in a CO2 incubator (CO2 concentration, 5%; humidity, 99.9%), and post-reaction absorbance was measured as above.
In general terms: Tetrazolium dyes change colour on reduction, which living cells bring about.

B1: granulocyte-colony stimulating factor (protein, UniProt P09919 31-207, looked up)
Granulocyte …: TPLGPASSLPQSFLLKCLEQVRKIQGDGAALQEKLVSECATYKLCHPEELVLLGHSLGIPWAPLSSCPSQALQLAGCLSQLHSGLFLYQGLLQALEGISPELGPTLDTLQLDVADFATTIWQQMEELGMAPALQPTQGAMPAFASAFQRRAGGVLVASHLQSFLEVSYRVLRHLAQP
notes: human G-CSF prepared from recombinant CHO cells
For the molecule B1, the “concentration where the response was observed to start” value in data set [1] is on record as 2 pg/mL. The “concentration at which an evident growth reaction was observed” value in data set [2] is listed as ≥ 10 pg/mL. Moreover, the titer in data set [3] is listed as 1.2×10^8 IU/mg.

B2: human Flt-3 ligand: human Flt-3 ligand (Genzyme) (protein, UniProt P49771 27-235, looked up)
Fms-related tyrosine kinase 3 …: TQDCSFQHSPISSDFAVKIRELSDYLLQDYPVTVASNLQDEELCGGLWRLVLAQRWMERLKTVAGSKMQGLLERVNTEIHFVTKCAFQPPPSCLRFVQTNISRLLQETSEQLVALKPWITRQNFSRCLELQCQPDSSTLPPPWSPRPLEATAPTAPQPPLLLLLLLPVGLLLLAAAWCLHWQRTRRRTPRPGEQVPPVPSPQDLLLVEH
B2: in data set [4], the “concentration at which an evident growth reaction was observed” value is recorded as ≥ 300 pg/mL.

(Values after US7732133B2, “Screening methods for biologically active ligands” (Chugai Seiyaku Kabushiki Kaisha, priority 2000, dated 2010).)
